Test results as given in PMC8208582, “Crosstalk between H2A variant-specific modifications impacts vital cell functions” (PLoS Genetics, 2021).

B1: recombinant H2A.W.7 (natural protein, Arabidopsis, UniProt Q94F49 1-150, looked up)
chain: MESSQATTKPTRGAGGRKGGDRKKSVSKSVKAGLQFPVGRIARYLKKGRYALRYGSGAPVYLAAVLEYLAAEVLELAGNAARDNKKNRINPRHLCLAIRNDEELGRLLHGVTIASGGVLPNINPVLLPKKSTASSSQAEKASATKSPKKA
notes: histone H2A.W.7 of Arabidopsis; source: E. coli BL21 (DE3), purified (Ni-NTA under denaturing conditions, thrombin, SP sepharose)
B2: recombinant H2A.W.6 (natural protein, Arabidopsis, UniProt Q9FJE8 1-150, looked up)
chain: MESTGKVKKAFGGRKPPGAPKTKSVSKSMKAGLQFPVGRITRFLKKGRYAQRLGGGAPVYMAAVLEYLAAEVLELAGNAARDNKKSRIIPRHLLLAIRNDEELGKLLSGVTIAHGGVLPNINSVLLPKKSATKPAEEKATKSPVKSPKKA
notes: histone H2A.W.6 of Arabidopsis; source: E. coli BL21 (DE3), purified (Ni-NTA under denaturing conditions, thrombin, SP sepharose)
B3: recombinant H2A.13 (natural protein, Arabidopsis, UniProt Q9LHQ5 1-132, looked up)
chain: MAGRGKTLGSGVAKKSTSRSSKAGLQFPVGRIARFLKNGKYATRVGAGAPVYLAAVLEYLAAEVLELAGNAARDNKKTRIVPRHIQLAVRNDEELSKLLGDVTIANGGVMPNIHSLLLPKKAGASKPSADED
notes: histone H2A.13 of Arabidopsis; source: E. coli BL21 (DE3), purified (Ni-NTA under denaturing conditions, thrombin, SP sepharose)

target: T1, recombinant H2B.9 (Arabidopsis, UniProt O23629 1-150); experiment: SEC; freeze-dried histones mixed at a 1:1 molar ratio in 7 M guanidine hydrochloride, step-wise dialysed from 2 M to 0.1 M NaCl refolding buffer, Superdex200 in 0.1 M NaCl refolding buffer; peak fractions on SDS-PAGE; details: both partners purified
T1 construct: histone H2B.9 (HTB9) of Arabidopsis; source: E. coli BL21 (DE3), purified (Ni-NTA under denaturing conditions, thrombin, SP sepharose)
T1 sequence (O23629 whole entry): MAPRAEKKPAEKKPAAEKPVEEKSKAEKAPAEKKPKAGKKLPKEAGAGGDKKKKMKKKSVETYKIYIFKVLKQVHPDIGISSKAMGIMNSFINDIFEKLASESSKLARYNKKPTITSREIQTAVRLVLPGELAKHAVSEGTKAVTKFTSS

Binding result, binds:
B1
B2
B3
